Patent US20130116129, “METHOD FOR DETECTING TARGET MOLECULES” (NATIONAL INSTITUTE OF ADVANCED INDUSTRIAL SCIENCE AND …, published 2013)

Legend:
streptavidin [1] = molecular target: T1, streptavidin (UniProt P22629 P22629:25-183); assay: footprint; S1 nuclease protection; 50 mM NaCl, 20 mM MgCl2, Tris pH 7.5; ratio to control varies with streptavidin concentration; details: tags: Roche (free); Dynabeads streptavidin (Invitrogen) for bead selections; chain copies: 4
Description: (§1) Subsequently, 1 μl of S1 nuclease (22.5 units/μl) (Takara, Japan) was added to each tube followed by 20-minutes reaction at 37° C., and then the reaction was stopped by heating at 98° C. for 3 minutes.
(§2) PCR was performed, using a thermal circular (Biometra), after keeping the temperature at 96° C. for 1 minute, for 1 cycle of 95° C. for 15 seconds, 46° C. for 20 seconds, and 72° C. for 60 seconds, then 40 cycles each consisting of 95° C. for 15 seconds and 72° C. for 60 seconds. As a PCR reagent, KOD-Neo-plus (Toyobo Co., Ltd., Japan) was used.
(§3) After PCR, products were digested with the Msp I restriction enzyme. […] Samples after digestion were subjected to gel electrophoresis, so that the ratio of the amount of the streptavidin aptamer to the amount of the control aptamer could be determined.

streptavidin [2] = molecular target: T1, streptavidin; assay: footprint; stated non-binding control in S1 nuclease protection assay; details: tags: Roche (free); Dynabeads streptavidin (Invitrogen) for bead selections; chain copies: 4
Description: as §1, §2, §3

T1 sequence (P22629 25-183, one chain of several): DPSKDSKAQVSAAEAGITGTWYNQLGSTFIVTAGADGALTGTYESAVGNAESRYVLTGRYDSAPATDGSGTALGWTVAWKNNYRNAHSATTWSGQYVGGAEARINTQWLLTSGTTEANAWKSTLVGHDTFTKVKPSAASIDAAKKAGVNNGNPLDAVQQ

Binder | binding result (streptavidin [1]) | binding result (streptavidin [2])
TCTGTGAGACGACGCACCGGTCGCAGGTTTTGTCTCACAG (ssDNA) [streptavidin aptamer] | binds | 
TCTGTGAGACGACGCACCGACCGCAGGTTTTGTCTCACAG (ssDNA) [control aptamer] |  | no binding
